In US11130783B2, “CD40 targeted peptides and uses thereof” (Regents of the University of Minnesota, priority 2018, dated 2021):
Entries after “also recorded” stand apart in the source; their conditions may differ.

Legend:
[1] = target: T1, CD40 on mononuclear cells (Macaca mulatta, UniProt A0ACM8QRX8); experiment: Binding of fluorochrome tagged CD40 targeting peptides to PBMC by flow cytometry; set-up: species or system Rhesus macaques; conditions: 5 μM fluorochrome tagged peptide, 30 minutes at 4° C.
T1 construct: peripheral blood mononuclear cells (PBMC) purified from 2 Rhesus macaques (RM); endogenous in cells; host or cells: PBMC from Rhesus macaques
Protocol: Binding of the CD40 targeting peptides was analyzed by incubating 5 μM of various fluorochrome tagged CD40 interacting peptides with PBMC from rhesus monkeys for 30 minutes at 4° C. and analyzed by flow cytometry.
In order to screen the ability of the cyclic peptides to bind to CD40, peripheral blood mononuclear cells (PBMC) purified from 2 Rhesus macaques (RM) were incubated with 5 μM of fluorochrome tagged CD40 interacting peptides, Peptide 1-7 listed in Table 1 for 30 minutes at 4° C. The cells were washed 3× in PBS and analyzed by flow cytometry. Stained cells were acquired on a 3-laser BD Canto II instrument (BD Bioscience). A minimum of 200,000 events were acquired with FACSDIVA 6.1.3. Mean fluorescence intensity of the peptide binding to the cells were determined using FlowJo 10.1. software (Tree Star; Ashland, OR, USA). […] 1-7 bind to the PBMC but at various intensities, confirming the ability of the synthetic peptides to bind to CD40 on mononuclear cells.

recombinant human CD40 = target: T2, recombinant human CD40 (Homo sapiens, UniProt P25942); experiment: ELISA for specificity of peptide binding to CD40; conditions: for binding affinity to CD40 by ELISA: FLAG-tagged rhsCD40 1 μg/ml, optical density at 450 nm; for affinity to bind to CD40 compared to the control Peptide 1: summary of the study
T2 construct: probed with FLAG-tagged rhsCD40 (1 μg/ml; Alexis); purchased Alexis
Protocol: Binding of the identified peptides to CD40 was analyzed by ELISA. Briefly, plates were coated with […] and then incubated with identified peptides and detected using Flag-tagged rhsCD40.
In order to confirm the specificity of the peptides to interfere with CD40:CD154 interaction, the specificity of peptides 1-7 as listed in table 1 to bind to human […] by ELISA was tested. Briefly, 96 well ELISA (Nunc Immunolon) plates were coated with the peptides in carbonate buffer. The wells are washed and probed with FLAG-tagged rhsCD40 (1 μg/ml; Alexis) and developed with HRP conjugated rabbit anti-FLAG antibody. The plates were washed and the enzymatic activity was determined using 3,3′,5,5′-tetramethyl-benzidine substrate for 15 minutes and the reaction was stopped by the addition of 2 M H2SO4, and optical density was measured at 450 nm, with the correction wavelength set at 620 nm.

CD4, CD8 and CD20 cells = experiment: One-way CFSE mixed lymphocyte reaction (MLR), T and B cell proliferation; assay type: cell-based, Rhesus macaques; conditions: peptides at 30 μM, 6 days, CFSE-low cells, PBMC from 5 RM
Protocol: The ability of the CD40 targeting peptides to block CD40-CD40L signaling and inhibit T and B cell proliferation was assessed in a one-way CFSE-MLR. Each of the FIGS. 3A-3E show results of CFSE-MLR performed on PBMC obtained from a different Rhesus monkey. […] The levels of T cell and B cell proliferation was 35-46% in all the 5 animals and for sake clarity was capped at 25% in the figure for better visualization.
In order to determine the functional effect of co-stimulation blockade with peptides targeting CD40, one-way mixed lymphocyte reactions (MLR) was performed. CFSE-labeled PBMC from 5 different RM were stimulated with irradiated PBMC for 6 days. Stimulation with PHA was used as positive control. […] The cells were incubated in the presence of peptides at 30 μM. Following stimulation, PBMC were stained with antibodies specific for CD4, CD8 and CD20 and proliferating cells were quantitated by determining the frequency of CFSE-low CD4, CD8 and CD20 cells. Stained cells were acquired on a 3-laser BD Canto II instrument (BD Bioscience). A minimum of 200,000 events were acquired with FACSDIVA 6.1.3. FACS analysis was performed with FlowJo Version 10 software.

B cells = experiment: Peptide blocking of B cell activation by recombinant hCD40L (MHC class II expression); assay type: cell-based, Rhesus macaques; conditions: peptides at 30 μM, pre-incubation then recombinant hCD40L
Protocol: The ability of the newly identified peptides to block B cell activation by CD40L was analyzed in a peptide blocking study. Briefly, B cells were pre-incubated with newly identified peptides for 30 minutes before stimulation with rhCD40L. Activation of the B cells was analyzed by measuring the expression levels of MHC class II molecules on the cell surface by flow cytometry.
The ability of CD40-binding peptides 1-7 as listed in Table 1 to block B cell activation was assessed by analyzing the expression of MHC class II molecules on the B cell when subsequently incubated in the presence of recombinant hCD40L. Briefly, B cells were purified from 3 RM PBMC by magnetic sorting. B cells were incubated with peptides at 30 μM for 15 minutes at 37° C., then activated for 30 minutes with recombinant hCD40L, and then analyzed for expression of MHC class II by staining the cells with specific antibody. Stained cells were acquired on a 3-laser BD Canto II instrument (BD Bioscience). A minimum of 200,000 events were acquired with FACSDIVA 6.1.3. FACS analysis was performed with FlowJo Version 10 software.

T1 sequence (A0ACM8QRX8 21-278): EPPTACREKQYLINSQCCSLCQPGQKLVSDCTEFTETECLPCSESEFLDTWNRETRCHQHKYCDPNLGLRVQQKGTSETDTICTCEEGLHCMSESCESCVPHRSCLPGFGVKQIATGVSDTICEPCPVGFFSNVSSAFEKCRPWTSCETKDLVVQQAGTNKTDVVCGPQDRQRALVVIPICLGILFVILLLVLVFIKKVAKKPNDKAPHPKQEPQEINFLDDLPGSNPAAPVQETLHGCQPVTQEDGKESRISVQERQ
T2 sequence (P25942 21-193 limits assumed): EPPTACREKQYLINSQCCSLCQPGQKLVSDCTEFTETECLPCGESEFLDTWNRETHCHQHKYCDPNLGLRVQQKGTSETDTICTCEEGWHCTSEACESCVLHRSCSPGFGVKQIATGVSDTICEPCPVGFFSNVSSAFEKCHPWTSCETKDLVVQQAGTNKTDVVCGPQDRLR

| Sequence | binding to PBMC / mononuclear cells (mean fluorescence intensity) [1] | binding affinity to CD40 by ELISA (recombinant human CD40) | affinity to bind to CD40 compared to the control Peptide 1 (recombinant human CD40) | suppression of T and B cell (CD4, CD8, CD20) proliferation (CD4, CD8 and CD20 cells) | ability to block B cell activation (MHC class II expression) (B cells) | suppression of T and B cell (CD4, CD8, CD20) proliferation (CD4, CD8 and CD20 cells; listed as Peptide #3) | suppression of T and B cell (CD4, CD8, CD20) proliferation (CD4, CD8 and CD20 cells; listed as Peptide#2) |
| --- | --- | --- | --- | --- | --- | --- | --- |
| VVQWAEKGYYTMSQN [Peptide 7] | least binding affinity | specific binding to human CD40 |  |  |  |  |  |
| VLNWADKAYFTMSQN [Peptide 4] |  | lowest binding affinity |  |  |  |  |  |
| LVNWADKAFYTTSNN [Peptide 5] |  |  | higher affinity | complete abrogation of T and B cell proliferation | complete abrogation of T and B cell proliferation as well as activation of B cells |  |  |
| VLQWAEKGYYTMSNN [Peptide 1, reference compound] | high binding affinity | high binding affinity |  |  |  |  |  |
| VVQWAEKGFFTMSNN [Peptide 3] | high binding affinity | specific binding to human CD40 | higher affinity | higher efficacy compared to the other peptides; also recorded: complete abrogation of T and B cell proliferation | complete abrogation of T and B cell proliferation as well as activation of B cells | inhibited T and B cell proliferation significantly better than the CD40 targeting peptide identified earlier |  |
| VLQWAERGFYTTSNN [Peptide 2] |  | specific binding to human CD40 | higher affinity | higher efficacy compared to the other peptides; also recorded: complete abrogation of T and B cell proliferation | complete abrogation of T and B cell proliferation as well as activation of B cells |  | inhibited T and B cell proliferation significantly better than the CD40 targeting peptide identified earlier |
